Where no end group is shown, it is not given here.
B1: Phage-2970 (peptide)
peptide: VYPLCKPSWMCSGL
modifications: cysteine pairing not given here; also: peptide displayed as fusion to phage pIII
notes: Clonal phage of the peptide-180 optimisation library, tested as crude phage supernatant; not shown: bacteriophage pIII coat protein to which the peptide is fused for display
B2: Phage-2986 (peptide)
peptide: SQPMCIPVWMCRGF
notes: It was tested as crude clonal phage supernatant; also called Peptide-180 library clone
B3: Phage-2993 (peptide)
peptide: LAHMCIPAWMCAGL
modifications: cysteine pairing not given here; also: peptide displayed as fusion to phage pIII
B4: Phage-2969 (peptide)
peptide: LDIWCVPAWMCHGF
modifications: cysteine pairing not given here; also: peptide displayed as fusion to phage pIII
notes: as for B1
B5: Phage-2974 (peptide)
peptide: VGAACIPDWMCVGF
modifications: cysteine pairing not given here; also: peptide displayed as fusion to phage pIII
notes: as for B1
B6: Phage-2987 (peptide)
peptide: LLVRCQPEWMCVGF
notes: as for B2
B7: Phage-2989 (peptide)
peptide: TVVMCKPSWMCEGF
notes: as for B2
B8: Phage-2985 (peptide)
peptide: EEVYCVPKWMCLGF
notes: as for B2
B9: Phage-2982 (peptide)
peptide: PMHACIPMWMCAGF
notes: as for B2
B10: Phage-2978 (peptide)
peptide: FGYACIPNWMCTVF
notes: as for B2
B11: Phage-2980 (peptide)
peptide: VEHWCRPEWMCAGF
notes: as for B2
B12: Phage-2984 (peptide)
peptide: AGIRCVPEWMCLGF
notes: as for B2
B13: Phage-2981 (peptide)
peptide: DDRMCIPSWMCSGL
notes: as for B2
B14: Phage-2988 (peptide)
peptide: FTAYCKPAWMCQGL
notes: as for B2
B15: Phage-2976 (peptide)
peptide: FEMLCKPAWMCSGF
notes: as for B2
B16: Phage-2977 (peptide)
peptide: TELRCVPSWMCTGF
notes: as for B2
B17: Phage-2975 (peptide)
peptide: GVPMCVPDWMCHGL
modifications: cysteine pairing not given here; also: peptide displayed as fusion to phage pIII
notes: as for B1
B18: Phage-2983 (peptide)
peptide: PERMCRPLWMCEGF
notes: as for B2
B19: Phage-2971 (peptide)
peptide: DIPICRPQWMCIGF
modifications: cysteine pairing not given here; also: peptide displayed as fusion to phage pIII
notes: as for B1
B20: Phage-2979 (peptide)
peptide: SEIACRPAWMCQWL
notes: as for B2
B21: Phage-2972 (peptide)
peptide: GDVYCKPAWMCDGF
modifications: cysteine pairing not given here; also: peptide displayed as fusion to phage pIII
notes: as for B1
B22: Phage-2990 (peptide)
peptide: TTIMCEPTWMCTGF
modifications: cysteine pairing not given here; also: peptide displayed as fusion to phage pIII
B23: Phage-2973 (peptide)
peptide: VSPLCVPSWMCVGF
modifications: cysteine pairing not given here; also: peptide displayed as fusion to phage pIII
notes: as for B1

Tests used:
PSMA Fab [1] = target: T1, PSMA Fab (biotinylated (site not stated)); test: phage ELISA, captured anti-PSMA Fab pre-incubated with PSMA antigen as competitor, anti-M13 HRP detection
T1 construct: Biotinylated PSMA Fab captured on neutravidin coated plates in the phage ELISA; also called Anti-PSMA Fab; 006 PSMA Fab

PSMA Fab [2] = target: T1, PSMA Fab; test: phage ELISA, biotinylated anti-PSMA Fab on neutravidin plate, anti-M13 HRP detection
Method: (§1) Clonal phage were harvested as crude supernatants and screened via standard ELISAs. […] Prior to the addition of clonal phage. wells were incubated with blocking buffer and PSMA antigen or blocking buffer alone. Without washing or aspirating, clonal phage supernatants were then added to the wells and incubated for a short time. Wells were then washed followed by detection of bound phage using a horse radish conjugated anti-M13 antibody.

PSMA Fab [3] = target: T2, PSMA Fab (biotinylated (site not stated)); test: phage ELISA; biotinylated PSMA Fab on neutravidin plate, clonal phage supernatant, anti-M13 HRP detection;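 further: wells preincubated with PSMA antigen in blocking buffer or with blocking buffer only before clonal phage were added for a short incubation, then bound phage detected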
T2 construct: also called Anti-PSMA Fab; 006 PSMA Fab

PSMA Fab [4] = target: T2, PSMA Fab; test: phage ELISA; PSMA Fab on plate pre-incubated with PSMA antigen as competitor, anti-M13 HRP detection;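 further: crude clonal phage supernatants added to Fab-coated wells still holding PSMA antigen in blocking buffer, with bound phage as read-out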
Method: as §1

Anti-PSMA Fab [5] = target: T3, Anti-PSMA Fab (biotinylated (site not stated)); test: phage ELISA; biotinylated anti-PSMA Fab on neutravidin plate, anti-M13-HRP detection, no PSMA antigen
T3 construct: The biotinylated PSMA Fab was captured on neutravidin coated plates for the phage ELISA; also called 006 PSMA Fab

Anti-PSMA Fab [6] = target: T3, Anti-PSMA Fab; test: phage ELISA; captured anti-PSMA Fab pre-incubated with PSMA antigen as competitor
Method: as §1

Binder | Phage binding ELISA signal, Anti-PSMA Fab (PSMA Fab [3]) | phage binding ELISA signal (Anti-PSMA Fab, PSMA antigen present) (PSMA Fab [4]) | Phage binding ELISA signal, Anti-PSMA Fab (Anti-PSMA Fab [5]) | Phage binding ELISA signal, Anti-PSMA Fab with PSMA antigen (Anti-PSMA Fab [6]) | also measured
B1 |  |  |  |  | Phage binding ELISA signal, Anti-PSMA Fab in presence of PSMA antigen (PSMA Fab [1]): 0.0843; Phage binding ELISA signal, Anti-PSMA Fab (PSMA Fab [2]): 2.26
LQSMCRPAWMCTGF [Phage-2994] | 2.22 | 0.0839 |  |  | 
B2 |  |  | 2.23 | 0.109 | 
B3 | 2.22 | 0.104 |  |  | 
B4 |  |  |  |  | Phage binding ELISA signal, Anti-PSMA Fab in presence of PSMA antigen (PSMA Fab [1]): 0.0712; Phage binding ELISA signal, Anti-PSMA Fab (PSMA Fab [2]): 2.26
PEALCMPPWMCHGF [Phage-2996] | 2.22 | 0.0657 |  |  | 
B5 |  |  |  |  | Phage binding ELISA signal, Anti-PSMA Fab in presence of PSMA antigen (PSMA Fab [1]): 0.0732; Phage binding ELISA signal, Anti-PSMA Fab (PSMA Fab [2]): 2.25
MSPRCVPMWMCDWL [Phage-2997] | 2.22 | 0.0821 |  |  | 
B6 |  |  | 2.23 | 0.14 | 
B7 |  |  | 2.22 | 0.083 | 
B8 |  |  | 2.23 | 0.0871 | 
FHVRCVPEWMCWGF [Phage-2991] | 2.22 | 0.153 |  |  | 
YEIRCEPKWMCMGF [Phage-2992] | 2.22 | 0.0735 |  |  | 
B9 |  |  | 2.23 | 0.114 | 
B10 |  |  | 2.24 | 0.122 | 
B11 |  |  | 2.24 | 0.0893 | 

Binder | Phage binding ELISA signal, Anti-PSMA Fab (PSMA Fab [3]) | phage binding ELISA signal (Anti-PSMA Fab, PSMA antigen present) (PSMA Fab [4]) | Phage binding ELISA signal, Anti-PSMA Fab (Anti-PSMA Fab [5]) | Phage binding ELISA signal, Anti-PSMA Fab with PSMA antigen (Anti-PSMA Fab [6]) | also measured
B12 |  |  | 2.23 | 0.0784 | 
B13 |  |  | 2.24 | 0.0851 | 
IARMCVPEWMCQEL [Phage-2999] | 2.22 | 0.107 |  |  | 
VVAHCVPSWMCTGF [Phage-2998] | 2.22 | 0.0901 |  |  | 
B14 |  |  | 2.22 | 0.0917 | 
B15 |  |  | 2.24 | 0.0857 | 
B16 |  |  | 2.24 | 0.0676 | 
AIAHCIPQWMCSGF [Phage-2995] | 2.22 | 0.0878 |  |  | 
B17 |  |  |  |  | Phage binding ELISA signal, Anti-PSMA Fab in presence of PSMA antigen (PSMA Fab [1]): 0.073; Phage binding ELISA signal, Anti-PSMA Fab (PSMA Fab [2]): 2.24
B18 |  |  | 2.23 | 0.11 | 
B19 |  |  |  |  | Phage binding ELISA signal, Anti-PSMA Fab in presence of PSMA antigen (PSMA Fab [1]): 0.0617; Phage binding ELISA signal, Anti-PSMA Fab (PSMA Fab [2]): 2.25
B20 |  |  | 2.24 | 0.125 | 
B21 |  |  |  |  | Phage binding ELISA signal, Anti-PSMA Fab in presence of PSMA antigen (PSMA Fab [1]): 0.0762; Phage binding ELISA signal, Anti-PSMA Fab (PSMA Fab [2]): 2.25
B22 | 2.22 | 0.0683 |  |  | 
B23 |  |  |  |  | Phage binding ELISA signal, Anti-PSMA Fab in presence of PSMA antigen (PSMA Fab [1]): 0.108; Phage binding ELISA signal, Anti-PSMA Fab (PSMA Fab [2]): 2.25

Reference: US20260242478A1 (published 2026)
